{
  "source": "paper PMC9282251",
  "about": "(Proceedings of the National Academy of Sciences of the …, 2022)",
  "molecular_target": "the molecule itself",
  "test": "single-molecule photobleaching and fluorescence intensity analysis",
  "data": [
    {"protein": "K401-clip labeled with Alexa-647 (domain or fragment, Alexa-647 label (labeling efficiencies of 15% monomer and 58% monomer in two preparations)) not shown", "values": [
      {"measurement": "stoichiometry N", "value": 2}
    ]}
  ]
}
